Experimental data taken from patent publication US7078382 (dated 2006).
Substitutions are numbered along the chain they refer to.

B1: LK-VRB-4s (ligand)
chain: APMAEGGGQNHHEVVKIEDVFERSICHPIETLVDIFQEYPDEIEYIFKPSCVPLMRCGGCCNDEGLECVPTEESNITMQIMRIKPHQGQHIGEMSFLQHNKCECRPKKD
B2: LK-VRB-2s* (ligand)
chain: B1 chain with I17F, E18M, F21Y, E22Q, I25Y, D63S, G65M, L66R
B3: LK-VRB-3s (ligand)
chain: B1 chain with E22K, I25S
B4: LK-VRB-1s* (ligand)
chain: B1 chain with I17F, F21L, E22R, I25S
B5: native VEGF (8-109) (ligand)
chain: GQNHHEVVKFMDVYQRSYCHPIETLVDIFQEYPDEIEYIFKPSCVPLMRCGGCCNDEGLECVPTEESNITMQIMRIKPHQGQHIGEMSFLQHNKCECRPKKD
B6: LK-VRB-2f (ligand)
chain: APMAEGGGQNHHEVVKFMDVYQRSYCHPIETLVDIFQEYPDEIEYIFKPSCVPLMRCGGCCNSEMRECVPTEESNITMQIMRIKPHQGQHIGEMSFLQHNKCECRPKKDRARQENPCGPCSERRKHLFVQDPQTCKCSCKNTDSRCKARQLELNERTCRCDKPRR
notes: also called KDR-full
B7: LK-VRB-7s* (ligand)
chain: B1 chain with I17F, F21Y, E22Q, I25Y, D63S, G65M, L66R
B8: LK-VRB-8s* (ligand)
chain: B1 chain with I17F, E18M, F21L, E22Q, I25Y, D63S, G65M, L66R
B9: LK-VRB-9s (ligand)
chain: B1 chain with I17F, E18M, F21Y, E22R, I25Y, D63S, G65M, L66R
B10: LK-VRB-17s (ligand)
chain: B1 chain with I17F, F21L, E22R, I25Y, D63S, G65M, L66R
B11: LK-VRB-18s (ligand)
chain: B1 chain with I17F, F21L, E22Q, I25S, D63S, G65M, L66R
B12: LK-VRB-10s (ligand)
chain: B1 chain with I17F, E18M, F21Y, E22Q, I25S, D63S, G65M, L66R
B13: LK-VRB-15s (ligand)
chain: B1 chain with I17F, E18M, F21L, E22Q, I25S, D63S, G65M, L66R
B14: LK-VRB-14s (ligand)
chain: B1 chain with I17F, E18M, F21L, E22R, I25Y, D63S, G65M, L66R
B15: LK-VRB-21s (ligand)
chain: B1 chain with I17F, F21L, E22R, I25S, D63S
B16: LK-VRB-26s (ligand)
chain: B1 chain with I17F, F21L, E22R, I25S, G65M, L66R
B17: LK-VRB-16s (ligand)
chain: B1 chain with I17F, E18M, F21Y, E22R, I25S, D63S, G65M, L66R
B18: LK-VRB-12s (ligand)
chain: B1 chain with I17F, F21Y, E22R, I25Y, D63S, G65M, L66R
B19: LK-VRB-13s (ligand)
chain: B1 chain with I17F, F21Y, E22Q, I25S, D63S, G65M, L66R
B20: LK-VRB-20s (ligand)
chain: B1 chain with I17F, E18M, F21L, E22R, I25S, D63S, G65M, L66R
B21: LK-VRB-25s (ligand)
chain: B1 chain with I17F, F21L, E22R, I25S, D63S, L66R
B22: LK-VRB-23s (ligand)
chain: B1 chain with I17F, F21L, E22R, I25S, L66R
B23: LK-VRB-22s (ligand)
chain: B1 chain with I17F, F21L, E22R, I25S, G65M
B24: LK-VRB-11s (ligand)
chain: B1 chain with I17F, F21L, E22Q, I25Y, D63S, G65M, L66R
B25: LK-VRB-24s (ligand)
chain: B1 chain with I17F, F21L, E22R, I25S, D63S, G65M

The binders below were run against KDR receptor with a gD tag at the N-terminus, on CHO cells (UniProt P35968 20-1356) (assay: cell-based or functional assay).
For B1, the “Phosphorylation-Inducing Activity (KIRA), concentration at midpoint” value was 1 nM and the “Phosphorylation-Inducing Activity (KIRA), ratio to native VEGF (8-109)” value was 0.5 fold of native VEGF (8-109).
In the case of B2, the “Phosphorylation-Inducing Activity (KIRA), concentration at midpoint” value is reported as 2 nM.
B3 was tested, and the “Phosphorylation-Inducing Activity (KIRA), concentration at midpoint” value was 2 nM and the “Phosphorylation-Inducing Activity (KIRA), ratio to native VEGF (8-109)” value was 1 fold of native VEGF (8-109).
B4 was tested, and the “Phosphorylation-Inducing Activity (KIRA), concentration at midpoint” value was 1 nM and the “Phosphorylation-Inducing Activity (KIRA), ratio to native VEGF (8-109)” value was 0.5 fold of native VEGF (8-109).
With B5 the “Phosphorylation-Inducing Activity (KIRA), concentration at midpoint” value was 2 nM.

What follows are binders tested against KDR receptor on human umbilical vein endothelial cells (HUVEC) (human, UniProt P35968 20-1356) (assay: cell-based or functional assay).
Sequence of KDR receptor on human umbilical vein endothelial cells (HUVEC) (P35968 20-1356): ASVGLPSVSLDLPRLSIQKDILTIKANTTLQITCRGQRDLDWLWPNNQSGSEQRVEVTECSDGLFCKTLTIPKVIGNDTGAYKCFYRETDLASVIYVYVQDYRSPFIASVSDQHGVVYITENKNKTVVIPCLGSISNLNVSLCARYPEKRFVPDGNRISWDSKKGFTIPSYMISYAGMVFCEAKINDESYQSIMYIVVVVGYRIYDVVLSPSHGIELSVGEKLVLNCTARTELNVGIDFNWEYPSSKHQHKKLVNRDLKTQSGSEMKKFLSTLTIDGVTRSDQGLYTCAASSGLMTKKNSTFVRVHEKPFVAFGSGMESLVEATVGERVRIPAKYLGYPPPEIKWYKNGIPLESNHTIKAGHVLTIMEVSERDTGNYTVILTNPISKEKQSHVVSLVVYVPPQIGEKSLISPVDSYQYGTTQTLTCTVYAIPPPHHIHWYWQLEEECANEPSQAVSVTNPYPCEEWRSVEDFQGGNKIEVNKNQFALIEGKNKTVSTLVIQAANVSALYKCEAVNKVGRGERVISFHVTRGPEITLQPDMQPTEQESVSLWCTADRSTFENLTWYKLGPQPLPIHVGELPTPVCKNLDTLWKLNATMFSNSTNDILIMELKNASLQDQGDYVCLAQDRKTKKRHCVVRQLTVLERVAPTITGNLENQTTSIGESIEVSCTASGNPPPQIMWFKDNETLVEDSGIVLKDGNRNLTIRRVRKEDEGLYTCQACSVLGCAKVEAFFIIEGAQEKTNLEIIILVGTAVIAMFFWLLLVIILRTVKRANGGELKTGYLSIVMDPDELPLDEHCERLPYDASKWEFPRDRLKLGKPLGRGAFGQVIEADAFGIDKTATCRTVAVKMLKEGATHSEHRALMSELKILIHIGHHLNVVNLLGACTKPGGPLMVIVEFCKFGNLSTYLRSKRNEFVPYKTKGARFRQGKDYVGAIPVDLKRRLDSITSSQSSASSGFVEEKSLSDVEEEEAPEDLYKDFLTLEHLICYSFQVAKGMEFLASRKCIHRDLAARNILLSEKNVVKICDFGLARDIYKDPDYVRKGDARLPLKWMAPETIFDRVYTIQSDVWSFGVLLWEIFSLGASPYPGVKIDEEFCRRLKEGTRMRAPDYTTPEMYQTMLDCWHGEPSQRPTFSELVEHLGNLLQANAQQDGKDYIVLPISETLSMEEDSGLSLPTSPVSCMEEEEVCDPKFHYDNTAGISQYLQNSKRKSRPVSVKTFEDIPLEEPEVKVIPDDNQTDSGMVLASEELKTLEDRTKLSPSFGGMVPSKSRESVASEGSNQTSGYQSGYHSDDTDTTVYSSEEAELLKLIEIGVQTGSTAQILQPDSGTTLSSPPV
B6 was tested, and the “Endothelial Cell Proliferation Activity (HUVEC, 3H-thymidine), concentration” value was 0.05 nM.
B2 was tested, and the “Endothelial Cell Proliferation Activity (HUVEC, 3H-thymidine), concentration” value was 0.05 nM.
With B7 the “Endothelial Cell Proliferation Activity (HUVEC, 3H-thymidine), concentration” value was 0.5 nM and the “Endothelial Cell Proliferation Activity (HUVEC, 3H-thymidine), ratio to native VEGF (8-109)” value was 1 fold of native VEGF (8-109).
B8 was tested, and the “Endothelial Cell Proliferation Activity (HUVEC, 3H-thymidine), concentration” value was 0.5 nM and the “Endothelial Cell Proliferation Activity (HUVEC, 3H-thymidine), ratio to native VEGF (8-109)” value was 1 fold of native VEGF (8-109).
For B4, the “Endothelial Cell Proliferation Activity (HUVEC, 3H-thymidine), concentration” value was 0.1 nM and the “Endothelial Cell Proliferation Activity (HUVEC, 3H-thymidine), ratio to native VEGF (8-109)” value was 0.2 fold of native VEGF (8-109).
For B5, the “Endothelial Cell Proliferation Activity (HUVEC, 3H-thymidine), concentration” value was 0.5 nM.

The binders below were run against KDR receptor (RIA of Example 11) (UniProt P35968 20-764, limits assumed) (assay: RIA essentially as in Muller et al. 1997).
Sequence of KDR receptor (RIA of Example 11) (P35968 20-764 limits assumed): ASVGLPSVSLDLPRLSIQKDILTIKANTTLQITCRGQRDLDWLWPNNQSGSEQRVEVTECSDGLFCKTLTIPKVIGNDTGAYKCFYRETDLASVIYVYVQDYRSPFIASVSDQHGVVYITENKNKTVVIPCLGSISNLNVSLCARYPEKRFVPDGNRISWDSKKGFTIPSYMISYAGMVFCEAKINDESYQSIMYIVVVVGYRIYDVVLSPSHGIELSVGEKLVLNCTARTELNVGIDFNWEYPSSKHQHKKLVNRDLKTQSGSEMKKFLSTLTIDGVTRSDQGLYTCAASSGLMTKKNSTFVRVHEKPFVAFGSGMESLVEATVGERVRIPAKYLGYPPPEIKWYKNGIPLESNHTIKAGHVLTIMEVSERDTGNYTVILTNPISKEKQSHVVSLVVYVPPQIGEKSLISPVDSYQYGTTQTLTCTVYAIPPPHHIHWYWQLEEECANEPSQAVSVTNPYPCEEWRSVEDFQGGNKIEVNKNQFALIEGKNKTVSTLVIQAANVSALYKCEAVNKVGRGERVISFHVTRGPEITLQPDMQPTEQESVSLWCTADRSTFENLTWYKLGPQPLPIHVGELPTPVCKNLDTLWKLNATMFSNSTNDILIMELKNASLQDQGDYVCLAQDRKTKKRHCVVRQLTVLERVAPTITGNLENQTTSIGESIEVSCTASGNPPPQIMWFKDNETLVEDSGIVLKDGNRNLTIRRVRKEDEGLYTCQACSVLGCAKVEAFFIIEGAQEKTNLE
With B4 the “Relative Binding Affinity” value was 20 fold of native VEGF 165.

Each binder was assayed against FLT-1 receptor (RIA of Example 11) (UniProt P17948 27-758, limits assumed) (assay: RIA essentially as in Muller et al. 1997).
Sequence of FLT-1 receptor (RIA of Example 11) (P17948 27-758 limits assumed): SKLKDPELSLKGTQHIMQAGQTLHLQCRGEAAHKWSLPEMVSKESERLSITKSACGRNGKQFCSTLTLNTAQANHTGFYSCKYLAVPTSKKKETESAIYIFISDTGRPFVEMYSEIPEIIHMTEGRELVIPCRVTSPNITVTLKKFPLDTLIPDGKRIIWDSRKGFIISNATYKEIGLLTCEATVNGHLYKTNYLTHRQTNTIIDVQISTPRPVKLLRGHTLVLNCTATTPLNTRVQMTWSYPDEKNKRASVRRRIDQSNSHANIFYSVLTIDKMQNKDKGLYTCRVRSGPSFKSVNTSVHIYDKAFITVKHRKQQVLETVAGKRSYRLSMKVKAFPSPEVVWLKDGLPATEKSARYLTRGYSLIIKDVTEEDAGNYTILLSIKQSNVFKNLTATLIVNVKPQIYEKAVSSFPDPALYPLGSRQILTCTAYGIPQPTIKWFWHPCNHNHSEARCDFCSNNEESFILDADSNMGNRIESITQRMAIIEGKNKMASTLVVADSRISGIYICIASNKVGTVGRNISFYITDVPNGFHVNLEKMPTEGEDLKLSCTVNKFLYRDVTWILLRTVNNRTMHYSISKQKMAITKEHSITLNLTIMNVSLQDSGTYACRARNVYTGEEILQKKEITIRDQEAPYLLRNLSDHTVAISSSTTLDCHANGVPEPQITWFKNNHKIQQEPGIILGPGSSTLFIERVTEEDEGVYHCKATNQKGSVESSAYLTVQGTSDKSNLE
B4 was tested, and the “Relative Binding Affinity” value was 14000 fold of native VEGF 165.

These binders were tested against T1, Flt-IgG (human, UniProt P17948 27-758, limits assumed) (assay: competition ELISA, biotinylated native VEGF as tracer, Flt-IgG captured by anti-human Fc).
T1 construct: Only described as 'a chimeric Flt-human Fc molecule'; captured by rabbit F(ab')2 to human IgG Fc; also called chimeric Flt-human Fc molecule; not shown: human IgG Fc
T1 sequence (P17948 27-758 limits assumed): as above
In the case of B6, the IC50 is reported as 19 nM.
In the case of B1, the IC50 is reported as 100 nM and the “Relative Binding Affinity” value is reported as 200 fold of native VEGF (8-109).
B7 was tested, and the “Relative Binding Affinity” value was > 15000 fold of native VEGF (8-109).
B3 was tested, and the IC50 was 170 nM and the “Relative Binding Affinity” value was 400 fold of native VEGF (8-109).
B8 was tested, and the “Relative Binding Affinity” value was > 21000 fold of native VEGF (8-109).
With B9 the “Relative Binding Affinity” value was 300 fold of native VEGF (8-109).
In the case of B4, the IC50 is reported as 2700 nM and the “Relative Binding Affinity” value is reported as 6000 fold of native VEGF (8-109).
B5 was tested, and the IC50 was 0.42 nM.

Each binder was assayed against T2, KDR (1-3) (UniProt P35968 20-327, limits assumed) (assay: competition ELISA, biotinylated native VEGF (8-109) as tracer, KDR (1-3) captured by mAb MAKD5).
T2 construct: domain: KDR (1-3); Soluble KDR (1-3) at 1 ug/ml, captured on the plate by anti-KDR monoclonal antibody MAKD5; also called KDR (1-3) monomer
T2 sequence (P35968 20-327 limits assumed): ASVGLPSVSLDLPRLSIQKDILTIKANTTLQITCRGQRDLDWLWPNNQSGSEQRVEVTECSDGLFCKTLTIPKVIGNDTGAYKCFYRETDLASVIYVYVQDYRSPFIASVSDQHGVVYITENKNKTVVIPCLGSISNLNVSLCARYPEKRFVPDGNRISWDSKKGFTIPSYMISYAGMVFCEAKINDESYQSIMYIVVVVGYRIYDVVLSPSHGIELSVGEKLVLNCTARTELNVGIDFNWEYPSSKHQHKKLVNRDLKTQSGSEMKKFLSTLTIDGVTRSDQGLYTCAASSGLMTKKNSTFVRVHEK
For B10, the IC50 was 3 nM and the “Relative Binding Affinity” value was 3 fold of native VEGF (8-109).
With B11 the IC50 was 130 nM and the “Relative Binding Affinity” value was 130 fold of native VEGF (8-109).
For B12, the IC50 was 0.5 nM and the “Relative Binding Affinity” value was 0.5 fold of native VEGF (8-109).
With B1 the IC50 was 1 nM and the “Relative Binding Affinity” value was 1 fold of native VEGF (8-109).
B13 was tested, and the IC50 was 2 nM and the “Relative Binding Affinity” value was 2 fold of native VEGF (8-109).
With B14 the IC50 was 0.5 nM and the “Relative Binding Affinity” value was 0.5 fold of native VEGF (8-109).
For B7, the IC50 was 1 nM and the “Relative Binding Affinity” value was 1 fold of native VEGF (8-109).
For B15, the IC50 was 3 nM and the “Relative Binding Affinity” value was 3 fold of native VEGF (8-109).
In the case of B3, the IC50 is reported as 1 nM and the “Relative Binding Affinity” value is reported as 1 fold of native VEGF (8-109).
B16 was tested, and the IC50 was 23 nM and the “Relative Binding Affinity” value was 23 fold of native VEGF (8-109).
With B17 the IC50 was 0.6 nM and the “Relative Binding Affinity” value was 0.6 fold of native VEGF (8-109).
With B8 the IC50 was 0.5 nM and the “Relative Binding Affinity” value was 0.5 fold of native VEGF (8-109).
With B18 the IC50 was 0.4 nM and the “Relative Binding Affinity” value was 0.4 fold of native VEGF (8-109).
With B19 the IC50 was 14 nM and the “Relative Binding Affinity” value was 14 fold of native VEGF (8-109).
In the case of B20, the IC50 is reported as 2 nM and the “Relative Binding Affinity” value is reported as 2 fold of native VEGF (8-109).
For B9, the IC50 was 0.5 nM and the “Relative Binding Affinity” value was 0.5 fold of native VEGF (8-109).
For B21, the IC50 was 4 nM and the “Relative Binding Affinity” value was 4 fold of native VEGF (8-109).
With B22 the IC50 was 11 nM and the “Relative Binding Affinity” value was 11 fold of native VEGF (8-109).
In the case of B23, the IC50 is reported as 4 nM and the “Relative Binding Affinity” value is reported as 4 fold of native VEGF (8-109).
For B4, the IC50 was 1 nM and the “Relative Binding Affinity” value was 1 fold of native VEGF (8-109).
With B24 the IC50 was 2 nM and the “Relative Binding Affinity” value was 2 fold of native VEGF (8-109).
B25 was tested, and the IC50 was 10 nM and the “Relative Binding Affinity” value was 10 fold of native VEGF (8-109).
